Assay results reported in US20260053918A1.

Target: CD19 (UniProt P15391)
Test: cell-based or functional assay

Work on “CD19R:CD28:z(CO) CAR containing the 2 point mutations, L235E and N297Q, in the CH2 portion of the IgG4 spacer (CD19R(EQ)), expressed on CMV/CAR T cells” yielded a total cell increase after 2 rounds of stimulation with irradiated CD19-expressing NIH3T3 cells of 120 to 150 fold.
